Key:
[1] = molecular target: Clostridium difficile strain 630 alanine racemase, recombinant wild type (Clostridium difficile strain 630); assay: SEC-MALS
[2] = test system: C[C@H](N)C(=O)O; assay: chiral HPLC of alanine enantiomers, initial rates; assay type: biochemical, Clostridioides difficile; details: L-Ala to D-Ala, 50 mM sodium borate pH 8.5, WT preparation partly cleaved at position 271
From the text: (§1) chiral HPLC of alanine enantiomers, initial rates on CdAlr (C. difficile alanine racemase; CdAlrWT)

[3] = test system: C[C@@H](N)C(=O)O; assay: chiral HPLC of alanine enantiomers, initial rates; assay type: biochemical, Clostridioides difficile; details: D-Ala to L-Ala, 50 mM sodium borate pH 8.5, WT preparation partly cleaved at position 271
From the text: as §1

Row | Substance | stoichiometry N [1] | Km [2] | kcat [2] | Km [3] | Vmax [3] | kcat [3]
1 | Clostridium difficile strain 630 alanine racemase, recombinant wild type (from UniProt A0AC59G415 1-385) (enzyme) | 2 | – | – | – | – | –
2 | CdAlr (C. difficile alanine racemase; CdAlrWT) (Clostridioides difficile 630) | – | 17.6 mM | 59.3 s⁻¹ | 7 mM | 26.7 µmol/min/mg | 19.2 s⁻¹
